Test results from patent US20160237160A1 (Bayer, published 2016).

How the values were obtained:
Assay in all cases: ELISA, Fc fusion protein coated at 1 µg/ml, TPP-2090 at 75 nM, Amplex Red;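 further: binding reported as ELISA signal intensity in Rfu against a panel of TNF receptor superfamily members presented as Fc fusion proteins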
[1] = target: T1, DcR3 (TNFRSF6B) Fc fusion protein (Human, UniProt O95407 30-300)
T1 construct: extracellular domain; bought
T1 sequence (looked up): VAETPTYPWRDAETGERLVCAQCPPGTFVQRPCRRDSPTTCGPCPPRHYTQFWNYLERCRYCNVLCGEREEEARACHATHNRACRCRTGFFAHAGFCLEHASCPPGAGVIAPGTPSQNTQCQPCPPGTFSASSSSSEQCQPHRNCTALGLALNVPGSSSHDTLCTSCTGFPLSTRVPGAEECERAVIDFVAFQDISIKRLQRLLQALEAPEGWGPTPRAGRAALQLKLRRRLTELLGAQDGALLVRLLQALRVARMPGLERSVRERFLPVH
Excerpt: (§1) Shown is the result of an ELISA: Y is “ELISA signal intensity [Rfu]”; X are “TNF receptor superfamily proteins tested (Fc-fusion proteins)”: 1 is “TWEAKR”; 2 is “TWEAKR”; 3 is “Apo-3”; 4 is “Trail-R1”; 5 is “Trail-R2”; 6 is “CD385”; 7 is “CD95”; 8 is “Rank”; 9 is “TNF-R1”; 10 is “TNF-R2”; 11 is “BAFF-R”; 12 is “DcR3”; 13 is “BCMA”; 14 is “TACI”; 15 is “OX40”; 16 is “CD30”; 17 is “CD27”; 18 is “CD40”; 19 is “Osteoprotegerin”; 20 is “EDAR”; 21 is “GITR”; 22 is “HVEM”; 23 is “NGF R”; 24 is “Trail R3”; 25 is “Lymphotioxin B R”; 26 is “Trail R4”; 27 is “EDA2R”; 28 is “TROY”; 29 is “RELT”; 30 is “4-1BB”.
(§2) To collect dose-response data a serial 3fold dilution of biotinylated IgG starting with a concentration of 2 μM was used as soluble binding partner. Detection was done with anti-hIgG1-HRP and Amplex Red.

[2] = target: T2, EDA2R (TNFRSF27) Fc fusion protein (Human, UniProt Q9HAV5 1-138)
T2 construct: extracellular domain; bought
T2 sequence (looked up): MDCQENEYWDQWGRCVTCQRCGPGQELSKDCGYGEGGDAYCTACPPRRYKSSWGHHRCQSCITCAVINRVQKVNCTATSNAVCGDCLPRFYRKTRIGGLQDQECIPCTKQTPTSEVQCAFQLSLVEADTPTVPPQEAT
Excerpt: as §1, §2

[3] = target: T3, TNF-R2 (TNFRSF1B) Fc fusion protein (Human, UniProt P20333 23-257)
T3 construct: extracellular domain; bought
T3 sequence (looked up): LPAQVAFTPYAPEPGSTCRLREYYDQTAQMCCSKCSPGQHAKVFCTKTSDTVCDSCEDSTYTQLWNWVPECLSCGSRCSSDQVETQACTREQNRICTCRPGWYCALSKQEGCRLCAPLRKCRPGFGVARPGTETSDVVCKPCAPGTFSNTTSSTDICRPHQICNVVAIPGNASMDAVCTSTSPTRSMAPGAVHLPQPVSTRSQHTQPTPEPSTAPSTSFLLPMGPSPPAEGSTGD
Excerpt: as §1, §2

[4] = target: T4, BAFF-R (TNFRSF13C) Fc fusion protein (Human, UniProt Q96RJ3 1-78)
T4 construct: extracellular domain; bought
Excerpt: as §1, §2

EDAR Fc fusion protein = target: T5, EDAR Fc fusion protein (Human, UniProt Q9UNE0 27-187)
T5 construct: extracellular domain; bought
T5 sequence (looked up): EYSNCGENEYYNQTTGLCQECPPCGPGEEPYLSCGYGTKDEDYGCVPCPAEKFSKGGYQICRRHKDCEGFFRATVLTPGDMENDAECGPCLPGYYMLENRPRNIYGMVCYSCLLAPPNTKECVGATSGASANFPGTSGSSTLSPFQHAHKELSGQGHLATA
Excerpt: as §1, §2

[5] = target: T6, Trail R3 (TNFRSF10C) Fc fusion protein (Human, UniProt O14798 26-221, limits assumed)
T6 construct: extracellular domain; bought
T6 sequence (looked up): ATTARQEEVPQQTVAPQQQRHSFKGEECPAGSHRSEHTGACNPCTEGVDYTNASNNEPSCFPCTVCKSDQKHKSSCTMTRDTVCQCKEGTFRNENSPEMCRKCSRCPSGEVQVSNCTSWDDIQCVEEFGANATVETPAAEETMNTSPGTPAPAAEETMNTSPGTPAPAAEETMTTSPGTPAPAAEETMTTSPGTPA
Excerpt: as §1, §2

[6] = target: T7, HVEM (TNFRSF14) Fc fusion protein (Human, UniProt Q92956 39-202)
T7 construct: extracellular domain; bought
T7 sequence (looked up): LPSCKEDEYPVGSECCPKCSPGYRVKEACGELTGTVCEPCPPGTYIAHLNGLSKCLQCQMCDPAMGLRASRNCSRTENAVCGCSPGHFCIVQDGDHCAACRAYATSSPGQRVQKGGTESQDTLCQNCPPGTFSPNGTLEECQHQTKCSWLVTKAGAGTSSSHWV
Excerpt: as §1, §2

[7] = target: T8, TROY (TNFRSF19) Fc fusion protein (Human, UniProt Q9NS68 30-170)
T8 construct: extracellular domain; bought
T8 sequence (looked up): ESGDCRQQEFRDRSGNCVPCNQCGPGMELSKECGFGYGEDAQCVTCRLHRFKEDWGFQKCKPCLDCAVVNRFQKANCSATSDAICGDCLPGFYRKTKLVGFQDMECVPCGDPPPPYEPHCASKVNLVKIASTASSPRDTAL
Excerpt: as §1, §2

[8] = target: T9, BCMA (TNFRSF17) Fc fusion protein (Human, UniProt Q02223 1-54)
T9 construct: extracellular domain; bought
T9 sequence (looked up): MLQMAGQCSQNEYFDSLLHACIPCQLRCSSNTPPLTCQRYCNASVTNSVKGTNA
Excerpt: as §1, §2

[9] = target: T10, Trail-R1 (TNFRSF10A) Fc fusion protein (Human, UniProt O00220 24-239)
T10 construct: extracellular domain; bought
T10 sequence (O00220 24-239): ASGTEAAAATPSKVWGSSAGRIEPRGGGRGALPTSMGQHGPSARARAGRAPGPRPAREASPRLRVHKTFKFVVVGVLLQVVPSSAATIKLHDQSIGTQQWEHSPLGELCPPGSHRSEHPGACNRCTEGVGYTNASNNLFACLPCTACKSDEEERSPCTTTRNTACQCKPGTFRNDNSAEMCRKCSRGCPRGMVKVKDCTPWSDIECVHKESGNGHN
Excerpt: as §1, §2

[10] = target: T11, CD95 (TNFRSF6) Fc fusion protein (Human, UniProt P25445 26-173)
T11 construct: extracellular domain; bought
T11 sequence (looked up): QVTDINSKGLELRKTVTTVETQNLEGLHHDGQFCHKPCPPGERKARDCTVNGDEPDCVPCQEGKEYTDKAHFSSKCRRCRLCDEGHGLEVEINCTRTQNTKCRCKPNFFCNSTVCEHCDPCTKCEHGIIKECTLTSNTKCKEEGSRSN
Excerpt: as §1, §2

binding result [1]: no binding (tested: 75 nM)
binding result [2]: no binding (tested: 75 nM)
binding result [3]: no binding (tested: 75 nM)
binding result [4]: no binding (tested: 75 nM)
binding result (EDAR Fc fusion protein): no binding (tested: 75 nM)
binding result [5]: no binding (tested: 75 nM)
binding result [6]: no binding (tested: 75 nM)
binding result [7]: no binding (tested: 75 nM)
binding result [8]: no binding (tested: 75 nM)
binding result [9]: no binding (tested: 75 nM)
binding result [10]: no binding (tested: 75 nM)
B1: TPP-2090 (antibody, human IgG1, kappa, V domains shown)
VH: EVQLLESGGGLVQPGGSLRLSCAASGFTFSPYPMIWVRQAPGKGLEWVSYISPSGGSTHYADSVKGRFTISRDNSKNTLYLQMNSLRAEDTAVYYCARGGDTYFDYFDYWGQGTLVTVSS
VL: DIQMTQSPSSLSASVGDRVTITCRASQSISGYLNWYQQKPGKAPKLLIYQASSLQSGVPSRFSGSGSGTDFTLTISSLQPEDFATYYCQQSYTSPFITFGQGTKVEIKR
notes: Human IgG1
